Assay results from US20230074436A1 (DENALI THERAPEUTICS, published 2023).
No end group written: not given here. *: point of attachment. Biotin = O=C1N[C@H]2[C@H](CS[C@H]2CCCCC(=O)*)N1

How the values were obtained:
[1] = target: T1, alpha-synuclein peptide 1-61 (human); assay: peptide ELISA
T1 construct: synthetic peptide coated on plate
Procedure: (§1) 96-well Nunc plates were coated with 1 pg/mL of the indicated synthetic peptide in PBS 50 μL/well overnight. The plates were washed three times with PBST, then blocked with 150 μL of 3% BSA in PBS for 1 hour. Purified antibody was diluted by serial dilution methods, from 10 pg/mL to 0.6 ng/ml, and 50 μL of the antibody solution was added to the peptide-coated wells. The plates were incubated for 1 hour at room temperature, then washed three times with PBST. Secondary detection antibody, goat anti-rat HRP (obtained from Southern Biotech) 1:5,000 diluted in BSA-PBS, was added to a concentration of 50 μL/well. Plates were incubated for one hour and washed three times with PBST. Plates were then developed with 50 μL/well of TMB substrate (obtained from Thermo Fisher) and quenched with 50 μL/well of 1 N sulfuric acid. The signal was quantified on a BioTek® plate reader at A450.

[2] = target: T2, alpha-synuclein peptide 1-95 (human); assay: peptide ELISA
T2 construct: synthetic peptide coated on plate
Procedure: as §1

[3] = target: alpha-synuclein peptide 1-112 (human); assay: peptide ELISA
Procedure: as §1

asyn_113-127 [4] = target: T3, asyn_113-127 (human); assay: Ala-scan peptide ELISA, row B, run 1
T3 construct: also called pep1
T3 peptide: Biotin-LEDMPVDPDNEAYEM
Procedure: (§2) 96-well Nunc plates were coated with 50 μL per well of 1 μg/mL streptavidin (from Jackson Immuno Research Laboratory) in PBS at 4° C. overnight. The plates were washed three times with PBST, and blocked with PBS containing 3% BSA at room temperature for 1 hour. The N-terminal biotinylated peptides were dissolved in Milli Q water to a concentration of 2 mg/mL, then further diluted to a concentration of 2 μg/mL with PBS. 50 μl of the diluted peptide was applied to the streptavidin-coated plates and incubated at 4° C. overnight. 2 μg/mL of biotinylated human alpha-synuclein was used as the positive control. The plates were washed three times with PBST before use. Purified antibody was diluted by serial dilution methods, from 20 μg/mL to 1 ng/mL, and 50 μL of the antibody solution was added to the peptide-coated wells. The plates were incubated for 1 hour at room temperature, then washed three times with PBST. Secondary detection antibody (goat anti-rat HRP (obtained from Southern Biotech)) was added with 1:5,000 dilutions and incubated for 1 hour at room temperature, then washed three times with PBST. Plates were developed with 50 μL/well of TMB substrate (Thermo Fisher) and quenched with 50 μL/well of 1 N sulfuric acid. The signal was quantified on a BioTek® plate reader at A450. A parallel repeat was performed for each peptide in a separate plate.

asyn_113-127_113A = target: T4, asyn_113-127_113A (human); assay: Ala-scan peptide ELISA, row B, run 1
T4 construct: substitution is already in the entry; also called pep2
T4 peptide: Biotin-AEDMPVDPDNEAYEM
Procedure: as §2

asyn_113-127_114A = target: T5, asyn_113-127_114A (human); assay: Ala-scan peptide ELISA, row B, run 1
T5 construct: substitution is already in the entry; also called pep3
T5 peptide: Biotin-LADMPVDPDNEAYEM
Procedure: as §2

asyn_113-127_115A = target: T6, asyn_113-127_115A (human); assay: Ala-scan peptide ELISA, row B, run 1
T6 construct: substitution is already in the entry; also called pep4
T6 peptide: Biotin-LEAMPVDPDNEAYEM
Procedure: as §2

asyn_113-127_116A = target: T7, asyn_113-127_116A (human); assay: Ala-scan peptide ELISA, row B, run 1
T7 construct: substitution is already in the entry; also called pep5
T7 peptide: Biotin-LEDAPVDPDNEAYEM
Procedure: as §2

asyn_113-127_117A = target: T8, asyn_113-127_117A (human); assay: Ala-scan peptide ELISA, row B, run 1
T8 construct: substitution is already in the entry; also called pep6
T8 peptide: Biotin-LEDMAVDPDNEAYEM
Procedure: as §2

asyn_113-127_118A = target: T9, asyn_113-127_118A (human); assay: Ala-scan peptide ELISA, row B, run 1
T9 construct: substitution is already in the entry; also called pep7
T9 peptide: Biotin-LEDMPADPDNEAYEM
Procedure: as §2

asyn_113-127_119A = target: T10, asyn_113-127_119A (human); assay: Ala-scan peptide ELISA, row B, run 1
T10 construct: substitution is already in the entry; also called pep8
T10 peptide: Biotin-LEDMPVAPDNEAYEM
Procedure: as §2

asyn_113-127_120A = target: T11, asyn_113-127_120A (human); assay: Ala-scan peptide ELISA, row B, run 1
T11 construct: substitution is already in the entry; also called pep9
T11 peptide: Biotin-LEDMPVDADNEAYEM
Procedure: as §2

asyn_113-127_121A = target: T12, asyn_113-127_121A (human); assay: Ala-scan peptide ELISA, row B, run 1
T12 construct: substitution is already in the entry; also called pep10
T12 peptide: Biotin-LEDMPVDPANEAYEM
Procedure: as §2

asyn_113-127_122A = target: T13, asyn_113-127_122A (human); assay: Ala-scan peptide ELISA, row B, run 1
T13 construct: substitution is already in the entry; also called pep11
T13 peptide: Biotin-LEDMPVDPDAEAYEM
Procedure: as §2

asyn_113-127_123A [5] = target: T14, asyn_113-127_123A (human); assay: Ala-scan peptide ELISA, row B, run 1
T14 construct: substitution is already in the entry; also called pep12
T14 peptide: Biotin-LEDMPVDPDNAAYEM
Procedure: as §2

asyn_113-127_124G = target: T15, asyn_113-127_124G (human); assay: Ala-scan peptide ELISA, row B, run 1
T15 construct: substitution is already in the entry; also called pep13
T15 peptide: Biotin-LEDMPVDPDNEGYEM
Procedure: as §2

asyn_113-127_124P [6] = target: T16, asyn_113-127_124P (human); assay: Ala-scan peptide ELISA, row B, run 1
T16 construct: substitution is already in the entry; also called pep14
T16 peptide: Biotin-LEDMPVDPDNEPYEM
Procedure: as §2

asyn_113-127_125A = target: T17, asyn_113-127_125A (human); assay: Ala-scan peptide ELISA, row B, run 1
T17 construct: substitution is already in the entry; also called pep15
T17 peptide: Biotin-LEDMPVDPDNEAAEM
Procedure: as §2

asyn_113-127_126A = target: T18, asyn_113-127_126A (human); assay: Ala-scan peptide ELISA, row B, run 1
T18 construct: substitution is already in the entry; also called pep16
T18 peptide: Biotin-LEDMPVDPDNEAYAM
Procedure: as §2

asyn_113-127_127A [7] = target: T19, asyn_113-127_127A (human); assay: Ala-scan peptide ELISA, row B, run 1
T19 construct: substitution is already in the entry; also called pep17
T19 peptide: Biotin-LEDMPVDPDNEAYEA
Procedure: as §2

[8] = target: T20, biotinylated human alpha-synuclein (human, UniProt P37840 1-140); assay: Ala-scan peptide ELISA, row B, run 1
Procedure: as §2

asyn_113-127 [9] = target: T3, asyn_113-127; assay: Ala-scan peptide ELISA, row E, run 1
Procedure: as §2

asyn_113-127_123A [10] = target: T14, asyn_113-127_123A; assay: Ala-scan peptide ELISA, row E, run 1
Procedure: as §2

asyn_113-127_124P [11] = target: T16, asyn_113-127_124P; assay: Ala-scan peptide ELISA, row E, run 1
Procedure: as §2

asyn_113-127_127A [12] = target: T19, asyn_113-127_127A; assay: Ala-scan peptide ELISA, row E, run 1
Procedure: as §2

[13] = target: T20, biotinylated human alpha-synuclein; assay: Ala-scan peptide ELISA, row E, run 1
Procedure: as §2

[14] = target: human alpha-synuclein pre-formed fibrils (human, UniProt P37840 1-140); assay: competition ELISA: fibrils titrated in solution against 0.6 nM antibody, free antibody read on aSyn-coated plate
Procedure: Purified antibody was probed with different concentrations of alpha-synuclein fibrils in solution, and the levels of unbound antibody were measured by ELISA analysis. In this experiment, 0.6 nM (0.1 μg/mL) of purified antibody was dissolved in phosphate-buffered saline (PBS) solution. […] The mixtures were gently shaken at room temperature for 1 hour to reach equilibrium. After that, these samples were transferred to an alpha-synuclein protein-coated ELISA plate and incubated for 5 minutes. During this short incubation, antibody that was not associated to antigen in the previous solution could instead bind onto the plate, and thus be quantified using a standard ELISA technique. By this means, it was possible to determine the amount of free antibody in the initial mixture with alpha-synuclein fibrils at indicated concentrations.

B1: 20H4 (antibody, rat IgG2b, V domains shown)
VH: AVQLVESGGGLVQPKESLKISCAASGFTFSNAAMYWVRQAPGKGLELLARIRTKPNNYATYHADSVKGRFTISRDDSQSMVYLHMGNLKTEDTAMYYCTADMATGDYWGPGVMVTVSS
VL: DIQMTQSPPVLSVSVGDRVTLSCKASQNINKNLDWYQQKHGEAPKPLIYSTNNLQTGVPSRFSGSGSGTDYTLTISSLQPEDVATYYCYQYKSAWTFGGGTKLELR
notes: also called clone 20H4; rat 20H4
antibody concentration at which ELISA is positive [1]: > 2600 ng/mL
antibody concentration at which ELISA is positive [2]: > 2600 ng/mL
antibody concentration at which ELISA is positive [3]: > 2600 ng/mL
A450 (asyn_113-127 [4]): 0.501 OD
A450 (asyn_113-127_113A): 0.462 OD
A450 (asyn_113-127_114A): 0.471 OD
A450 (asyn_113-127_115A): 0.486 OD
A450 (asyn_113-127_116A): 0.501 OD
A450 (asyn_113-127_117A): 0.527 OD
A450 (asyn_113-127_118A): 0.509 OD
A450 (asyn_113-127_119A): 0.058 OD
A450 (asyn_113-127_120A): 0.393 OD
A450 (asyn_113-127_121A): 0.49 OD
A450 (asyn_113-127_122A): 0.058 OD
A450 (asyn_113-127_123A [5]): 0.546 OD
A450 (asyn_113-127_124G): 0.366 OD
A450 (asyn_113-127_124P [6]): 0.047 OD
A450 (asyn_113-127_125A): 0.049 OD
A450 (asyn_113-127_126A): 0.35 OD
A450 (asyn_113-127_127A [7]): 0.333 OD
A450 [8]: 0.711 OD
A450 (asyn_113-127 [9]): 0.297 OD
A450 (asyn_113-127_123A [10]): 0.282 OD
A450 (asyn_113-127_124P [11]): 0.044 OD
A450 (asyn_113-127_127A [12]): 0.248 OD
A450 [13]: 0.383 OD
IC50 [14]: 1.73 nM
